Measured values as given in publication PMC9964314.

Tests used:
[1] = molecular target: FITC tagged AAV Po1 capsid bipartite NLS peptide (residues 119-158) (porcine adeno-associated virus, strain Po1); test: fluorescence polarisation
[2] = molecular target: FITC tagged AAV Po1 capsid monopartite NLS peptide (residues 143-165) (porcine adeno-associated virus, strain Po1); test: fluorescence polarisation

Substance	Kd [1] [nM]	Kd [2] [nM]
Human importin α1 lacking the IBB domain (hImpα1DIBB) (domain or fragment)	0.382	556
Human importin α3 lacking the IBB domain (hImpα3DIBB) (domain or fragment)	0.0455	3480
Human importin α5 lacking the IBB domain (hImp5DIBB) (domain or fragment)	0.14	144
Human importin α7 lacking the IBB domain (hImpα7DIBB) (domain or fragment)	0.29	294
